From paper PMC10980420, “Abscisic acid–induced transcription factor PsMYB306 negatively regulates tree peony bud dormancy release” come the findings set out here.

Series [1] has as its target T1, PsMYB306 (Paeonia suffruticosa, UniProt A0A7M3T7P1 1-327). Nature of the series: EMSA; LightShift EMSA Optimization and Control Kit (Pierce); buffer, salt, pH and temperature not stated. The settings on record: protein: recombinant; tags: His (pET28a, BamHI/HindIII); label: biotin (5' of strand 1 as printed, Bio-); blunt. (In general: A gel shift assay detects complexes by their altered migration in electrophoresis.)

Series [2] concerns the target T1, PsMYB306. Description: competition; unlabeled competitor at 50- and 100-fold against N1; signal attenuated; LightShift EMSA Optimization and Control Kit (Pierce); buffer, salt, pH and temperature not stated. The settings on record: protein: recombinant; tags: His (pET28a, BamHI/HindIII); label: none; blunt.

T1 sequence (A0A7M3T7P1 entry or part of it): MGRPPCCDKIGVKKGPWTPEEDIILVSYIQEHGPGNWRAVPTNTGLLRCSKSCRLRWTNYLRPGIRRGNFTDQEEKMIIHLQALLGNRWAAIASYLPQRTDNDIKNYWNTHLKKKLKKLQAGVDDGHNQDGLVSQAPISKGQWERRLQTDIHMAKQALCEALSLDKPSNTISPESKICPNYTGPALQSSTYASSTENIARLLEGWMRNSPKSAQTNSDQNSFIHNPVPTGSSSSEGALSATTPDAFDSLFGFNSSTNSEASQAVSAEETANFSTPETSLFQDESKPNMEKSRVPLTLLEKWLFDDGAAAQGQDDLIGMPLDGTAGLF

B1: pPsNCED3 mutant probe (dsDNA)
DNA 1: ACTTAGGATTACTCAGCCATAACTTCCTTCTT
DNA 2: AAGAAGGAAGTTATGGCTGAGTAATCCTAAGT
With B1, the binding result in series [1] is reported as “no binding”.

B2: pPsNCED3 WT probe (dsDNA)
DNA 1: ACTTAGGATTACTAGTTAATAACTTCCTTCTT
DNA 2: AAGAAGGAAGTTATTAACTAGTAATCCTAAGT
With B2, the binding result in series [1] is “binds”.

B3: pPsNCED3 WT cold competitor (dsDNA)
DNA 1: ACTTAGGATTACTAGTTAATAACTTCCTTCTT
DNA 2: AAGAAGGAAGTTATTAACTAGTAATCCTAAGT
With B3, in series [2], the binding result is on record as “binds”.
